Key:
[1] = biological target: T1, SARS-CoV-2 바이러스 표면 단백질 (RBD) (SARS-CoV-2, UniProt P0DTC2 319-541); assay: BLI (Octet), full IgG against RBD
[2] = biological target: T1, SARS-CoV-2 바이러스 표면 단백질 (RBD); assay: BLI (Octet), full IgG against SARS-CoV-2 RBD
[3] = biological target: T1, SARS-CoV-2 바이러스 표면 단백질 (RBD); assay: BLI (Octet), full IgG against RBD; printed as kdis

B1: No. 32 항체 (Full IgG) (antibody, V domains shown)
VH: EVQLVQSGGGLIQPGGSLRLSCAASEFIVSSNYMTWVRQAPGKGLEWVSIIYPGGSTYYADSVKGRFTISRDNSKNTLYLRMNSLRAEDTAVYYCARDLPLTGTTLDYWGQGTLVTVSS
VL: not shown
B1 was tested, and the Kd [1] was 0.305 nM, the kon [1] was 633000 M⁻¹ s⁻¹ and the Kd [2] was 0.147 nM. For the same binder, the koff [3] was 0.000193 s⁻¹.
